Test results taken from PMC7946963, “Phosphorylation regulates the binding of autophagy receptors to FIP200 Claw domain for selective autophagy initiation” (Nature Communications, 2021).

Assays:
Assay in all cases: fluorescence polarisation titration
Details in all cases: reference: unphosphorylated CCPG1 FIR2 peptide; sites S104
LC3C = LC3C (UniProt Q9BXW4)
GABARAPL2 = GABARAPL2 (UniProt P60520)
[1] = target: FIP200 (RB1CC1) Claw domain, 1490-1594 (UniProt Q8TDY2)
LC3A = LC3A (UniProt Q9H492)
LC3B = LC3B (UniProt Q9GZQ8)
GABARAPL1 = GABARAPL1 (UniProt Q9H0R8)

Measured: binding against the reference

CCPG1 FIR2, 99-113 (from UniProt Q9ULG6) pS104 CCPG1 FIR2 peptide
stronger: all assays above
